Measured values taken from US20100015126A1, “Methods of Binding of Cross-Beta Structures By Chaperones” (priority 2006, published 2010).

Tests used:
[1] = molecular target: T1, factor XII in plasma (Homo sapiens, UniProt P00748); test: Factor XII activation assay (direct, substrate S-2222); format: biochemical; details: chromogenic substrate S-2222
T1 construct: from tissue; host or cells: plasma
T1 sequence (P00748 20-615): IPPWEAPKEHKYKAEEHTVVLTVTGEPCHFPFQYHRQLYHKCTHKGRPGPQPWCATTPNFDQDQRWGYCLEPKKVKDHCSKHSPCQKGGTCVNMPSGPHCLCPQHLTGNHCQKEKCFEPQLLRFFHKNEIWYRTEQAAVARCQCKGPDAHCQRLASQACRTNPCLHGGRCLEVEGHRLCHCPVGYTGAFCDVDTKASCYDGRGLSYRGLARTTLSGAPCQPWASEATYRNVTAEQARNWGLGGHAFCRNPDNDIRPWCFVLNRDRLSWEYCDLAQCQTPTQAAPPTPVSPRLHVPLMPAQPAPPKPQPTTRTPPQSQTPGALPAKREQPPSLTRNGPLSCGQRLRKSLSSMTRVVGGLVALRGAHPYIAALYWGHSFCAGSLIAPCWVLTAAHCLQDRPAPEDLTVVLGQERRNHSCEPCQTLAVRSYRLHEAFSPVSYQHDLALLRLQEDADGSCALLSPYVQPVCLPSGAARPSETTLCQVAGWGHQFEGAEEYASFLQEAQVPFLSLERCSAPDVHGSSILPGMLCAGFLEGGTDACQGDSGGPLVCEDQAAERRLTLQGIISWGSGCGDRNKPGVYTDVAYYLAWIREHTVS
Protocol: Alternatively, activation of factor XII was assessed directly by omitting prekallikrein and using a factor XII chromogenic substrate, S-2222 (Chromogenix, Italy).

[2] = molecular target: T2, human BiP (Homo sapiens, UniProt P11021); test: ELISA: binding of BiP-FLAG-His to immobilized (misfolded) protein ligands; details: ligands coated at 5 μg/ml; 6BB peptides and oxLDL 50 μg/ml
T2 construct: The human BiP gene except the signal peptide encoding region was obtained from Geneart (Germany); linker […]; made in house; host or cells: HEK 293E cells, transient transfection, PABC674 vector; secreted into the medium
T2 sequence (P11021 19-654): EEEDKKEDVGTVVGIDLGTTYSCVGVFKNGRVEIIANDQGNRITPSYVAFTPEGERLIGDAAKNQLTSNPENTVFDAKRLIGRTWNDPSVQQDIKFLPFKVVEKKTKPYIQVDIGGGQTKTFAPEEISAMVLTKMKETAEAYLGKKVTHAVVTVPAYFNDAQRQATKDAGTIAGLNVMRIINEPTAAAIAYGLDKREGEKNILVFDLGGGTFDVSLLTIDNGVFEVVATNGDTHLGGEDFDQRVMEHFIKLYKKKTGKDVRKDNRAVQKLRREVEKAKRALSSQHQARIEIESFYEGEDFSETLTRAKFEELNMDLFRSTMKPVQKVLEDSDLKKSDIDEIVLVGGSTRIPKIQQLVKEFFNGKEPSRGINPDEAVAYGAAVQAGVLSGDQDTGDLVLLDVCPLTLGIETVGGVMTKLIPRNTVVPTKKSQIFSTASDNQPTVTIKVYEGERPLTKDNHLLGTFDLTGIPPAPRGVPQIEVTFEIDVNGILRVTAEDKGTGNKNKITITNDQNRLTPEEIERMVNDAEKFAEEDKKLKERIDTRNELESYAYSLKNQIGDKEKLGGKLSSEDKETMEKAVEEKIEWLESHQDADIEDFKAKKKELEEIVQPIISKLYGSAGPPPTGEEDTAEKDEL
Protocol: Enzyme Linked Immunosorbent Assay for Testing of Chaperone Binding to Misfolded Proteins
Binding of chaperones to immobilized (misfolded) protein ligands was determined using an enzyme linked immuno sorbent assay (ELISA) approach. For this purpose 50 μl/well of potential ligands at indicated concentrations or coat buffer only for control and background measurement purposes, were coated overnight at 4° C. or coated for 1 h at room temperature, with motion, in 50 mM NaHCO3 pH 9.6 (coat buffer). In general, ligands were coated at 5 μg/ml, unless stated otherwise. For example, BiP binding peptides 6BB# and oxLDL were coated at 50 μg/ml. Native haemoglobin (Sigma-Aldrich, H7379), albumin, IgIV Gammagard and ovalbumin controls were prepared from lyophilized stocks. The controls were prepared by dissolving lyophilized proteins at 1 mg/ml in PBS upon resuspending by pipetting, followed by a 30 minutes period at the roller device, at room temperature. The protein solutions were centrifuged for 10 minutes at 16,000*g and diluted in coat buffer. After coating the plates were washed at least three times with 50 mM Tris-HCl pH 7.3, 150 mM NaCl, 0.1% v/v Tween20, and blocked with Blocking reagent (Roche Diagnostics, Almere, The Netherlands; 11112589001), for 1 h at room temperature, with motion. Plates were washed three times and incubated in triplicate with indicated chaperone dilution series, at 50 μl/well, for 1 h at room temperature, with constant motion. For HSP90, 5 mM DTT is incorporated in the binding buffer (PBS/0.1% Tween20) to avoid unwanted disulfide bond formation of the HSP90. Plates were washed three times and incubated with anti-FLAG antibody (mouse antibody, M2, peroxidase conjugate; Sigma, A-8592) for BiP-FLAG-His, anti-His-tag antibody (Mouse Monoclonal Antibody, Cat. No. 70796, Novagen [0.2 mg/ml]) for HSP60, a 1:1 mix of 500-fold diluted anti-HSP90beta antibodies (Stressgen, SPA-643 [mouse monoclonal IgM], SPA-646 [rabbit polyclonal]) for HSP90 and an anti-DnaK antibody (Stressgen, 023SPA-880D [mouse monoclonal antibody]) for DnaK. After four wash cycles, secondary antibodies were added to the wells when required, 50 μl/well, for 45′ at room temperature, with motion. RAMPO and SWARPO were used at 3000 times dilution. […] In a second experiment with more immobilized misfolded proteins and controls, the detection of bound HSP90 with the mix of two anti-HSP90 antibodies was achieved by mixing 1:1500 SWARPO with 1:3000 RAMPO. After 5 washes with wash buffer followed by two washes with PBS, binding of antibodies was assessed. Bound anti-FLAG-PO, peroxidase-conjugated rabbit anti-mouse immunoglobulins (RAMPO, P0260, DAKOCytomation, Glostrup, Denmark) or peroxidase-coupled swine anti-rabbit immunoglobulins (SWARPO, P0217, DAKOCytomation) was visualized with tetramethylbenzidine (TMB, #45.01.20,/#45.014.01, Biosource, Nivelles, Belgium). The reaction was stopped after 5 minutes with 1% H2SO4 in H2O. Plates were read at 450 nm. Triplicates were averaged and standard deviations calculated. Background signals obtained with buffer-coated wells were subtracted (binding of primary antibody to empty wells), as well as background signals obtained with ligand-coated wells in which the chaperones were omitted (binding of primary and secondary antibody to coated ligands). Subsequently, sub-optimal concentrations of chaperones for binding to misfolded protein ligands are determined, and these concentrations are used for inhibition studies. […] We have previously identified that a sub-fraction of IgIV molecules has affinity for misfolded proteins comprising crossbeta structure (pending patent application). Moreover, we identified that the sub-fraction of IgIV molecules directly binds to crossbeta structure and/or crossbeta structure induced conformation (not shown; pending patent application). […]

[3] = tested on: HUVECs; test: Adhesion of HUVECs to immobilized misfolded proteins under influence of BiP (LDH read-out); format: cell-based, human; details: BiP approximately 200 μg/ml
Protocol: HUVECs are primary endothelial cells (ECs), isolated from umbilical cords using 0.1% collagenase (Sigma, C0130, 100 mg, dissolved in 100 ml M199 medium supplemented with 10% FCS (Gibco 10106-169) and Penicillin-Streptomycin (P/S, Gibco, 15140-122)), according to widespread used standard procedures known to a person skilled in the art. HUVECs have the typical features of ECs, e.g. cobblestone morphology and von Willebrand factor storage in Weibel-Palade bodies. HUVECs can regularly be cultured up to passage 5; beyond passage 5 HUVECs loose typical EC markers. The isolation is described here in brief. The umbilical cord is washed for less than 3 minutes in ethanol and subsequently with PBS. The vein is connected to canules and flushed with 10 ml PBS, followed by loading with the 0.1% collagenase solution. After a 15 minute-incubation at 37° C., the detached endothelial cell suspension is recovered by flushing the vein with 10 ml medium which is subsequently added to the collagenase solution. The EC suspension is centrifuged for 5 minutes at room temperature, at low g-force. Supernatant is discarded and the cell pellet is resuspended in 5 ml ‘rich medium’ (EGM-2; Endothelial basal medium (EBM-2, Cambrex, CC-3156) and Singlequots containing supplements for endothelial cells (Cambrex, CC-4176)). Cells (passage 0, P0) are seeded in a culture flask coated with 0.5% gelatin (Sigma, G1393). To facilitate the adhesion of the endothelial cells, human fibronectin is added to the cell culture at a final concentration of 2 μg/ml. EC's are cultured at 37° C., at 5% CO2. The cell culture medium is refreshed every 2-3 days up to when the cells grow to confluency. Then, with the addition of trypsin-EDTA, the cells are detached from the flask, centrifuged at low g-force, resuspended in rich medium and seeded in larger 0.5% gelatin-precoated cell culture flasks.
In 96-wells plates (Immulon high-binding plates, Thermo Labsystems 3355) proteins, i.e. BSA-AGE, control BSA, IgIV Gammagard, crossbeta dIgIV-86 at 5 μg/ml, 10 μg/ml misfolded oxLDL, or gelatin (Sigma G1393, 2% solution in H2O or PBS, positive control for adhesion to ECs) were coated using 100 μl solutions, in six wells for each condition. Following incubation for 2 hours at 37° C. the solutions were discarded and the wells blocked for 1 hour at 37° C. with 100 μl/well of 1% polyvinyl-pyrrolidone (PVP, Sigma P5288) in PBS, filter (0.22 μm) sterilized. […] Subsequently, the block solution was discarded. Next, the plates were incubated with 40 μl RPMI 1640 medium (Gibco, 52400) and 10 μl of the potential inhibitor, i.e. recombinant human BiP at approximately 200 μg/ml final concentration. HUVECs were obtained by trypsinization. […] The absorbance at 490 nm was measured on a Versamax microplate reader at various time points.

Row | Activation of factor XII in plasma (conversion of S-2222) [1] | Binding of concentration series of BiP to coated ligand [2] | Substance | Number of adhered HUVECs after preincubation of coated protein with BiP [3]
1 | stimulates the conversion of S-2222 | has been established | KRLEVDIDIKIRS [FP13, synthetic fibrin fragment comprising crossbeta structure] | –
2 | – | – | gelatin | hardly increase
